The source of these data is patent US20080207501A1 (published 2008).

Ends that are not written are not given here. A value given as a limit tells only on which side of the number the result lay.

The test addresses T1, amylin receptor (nucleus accumbens membranes prepared from rat brain) (rat, UniProt P32214 25-516).
T1 chain 1: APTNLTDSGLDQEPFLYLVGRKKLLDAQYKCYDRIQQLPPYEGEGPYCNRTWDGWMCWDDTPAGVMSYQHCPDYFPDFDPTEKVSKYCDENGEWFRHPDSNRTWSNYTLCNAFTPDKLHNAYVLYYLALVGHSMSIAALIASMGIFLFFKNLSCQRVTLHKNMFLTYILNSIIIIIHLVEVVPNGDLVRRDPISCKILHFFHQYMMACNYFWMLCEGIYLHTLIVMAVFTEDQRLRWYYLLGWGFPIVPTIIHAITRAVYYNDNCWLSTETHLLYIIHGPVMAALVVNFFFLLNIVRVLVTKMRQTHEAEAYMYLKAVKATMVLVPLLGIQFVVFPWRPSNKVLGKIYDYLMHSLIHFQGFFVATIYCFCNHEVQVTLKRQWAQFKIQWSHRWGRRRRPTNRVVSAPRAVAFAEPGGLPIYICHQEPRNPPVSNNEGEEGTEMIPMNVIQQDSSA
T1 chain 2: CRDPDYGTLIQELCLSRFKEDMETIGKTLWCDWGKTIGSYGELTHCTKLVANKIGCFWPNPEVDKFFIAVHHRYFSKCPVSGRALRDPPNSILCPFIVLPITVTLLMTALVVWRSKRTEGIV
The experiment in a line: radioligand binding assay (displacement of radiolabeled amylin).

In general, EC50 refers to the concentration giving half of the maximal effect. Low readings indicate greater potency, high ones weaker potency. Molecule CGNLSTCMLGTYTQDFNKFHTFPQTAIGVGAP-NH2 (ends and bridges not checked) [Human Calcitonin] showed an EC50 of over 100 nM. Then TQAQLLRVGCVLGTCQVQNLSHRLWQLMGPAGRQDSAPVDPSSPHSY-NH2 (ends and bridges not checked) [Human AFP-6 [1-47]], with 2.9 nM.
